Experimental data reported in paper PMC4683255, “Evidence for a Functional O-Linked N-Acetylglucosamine (O-GlcNAc) System in the Thermophilic Bacterium Thermobaculum terrenum*” (The Journal of Biological Chemistry, 2015).
Where a chain is given by its changes, count along the chain named. Values belong to the molecule of their own block, whether it stands above or below them. Where no end group is shown, it is not given here. The star is where a group is joined. βGlcNAc = CC(=O)N[C@@H]1[C@@H](O)[C@H](O)[C@@H](CO)O[C@H]1*

Assays:
[1] = target: T1, TtOGT (Thermobaculum terrenum, UniProt D1CIY5, K341M); experiment: X-ray crystal structure of complex, […] A; assay type: binding; conditions: co-crystallized with 10 mM UDP; active site; mutant stated in the crystallization methods; PDB code assigned by reader
T1 construct: gene Tter_2822; full-length, N-terminal GST fusion from E. coli BL21, GST cut off with PreScission protease (pGEX-6P-1)
T1 sequence (D1CIY5 entry or part of it K341M): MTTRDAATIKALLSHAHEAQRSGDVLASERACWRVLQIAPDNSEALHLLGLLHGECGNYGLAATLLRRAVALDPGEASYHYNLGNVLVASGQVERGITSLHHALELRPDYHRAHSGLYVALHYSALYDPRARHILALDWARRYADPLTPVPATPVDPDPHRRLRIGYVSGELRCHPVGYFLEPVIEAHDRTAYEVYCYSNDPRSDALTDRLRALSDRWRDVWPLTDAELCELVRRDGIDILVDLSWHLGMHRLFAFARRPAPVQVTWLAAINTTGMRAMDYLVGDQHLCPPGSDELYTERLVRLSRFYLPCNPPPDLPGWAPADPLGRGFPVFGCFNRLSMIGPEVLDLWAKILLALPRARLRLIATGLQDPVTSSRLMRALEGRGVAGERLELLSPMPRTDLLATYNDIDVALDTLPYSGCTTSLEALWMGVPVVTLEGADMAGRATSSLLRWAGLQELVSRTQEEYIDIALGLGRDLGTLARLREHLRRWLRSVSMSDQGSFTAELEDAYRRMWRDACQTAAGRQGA

[2] = target: T2, TtOGA (Thermobaculum terrenum, UniProt D1CDN2); experiment: fluorogenic 4MU-GlcNAc hydrolysis; Ki from IC50 by Cheng-Prusoff; assay type: biochemical; conditions: 4MU-GlcNAc 90 uM (= Km); 4 pM enzyme; 1 min preincubation
T2 construct: gene Tter_0116; full-length, N-terminal GST fusion from E. coli BL21, GST cut off with PreScission protease (pGEX-6P-1)
T2 sequence (D1CDN2 entry or part of it): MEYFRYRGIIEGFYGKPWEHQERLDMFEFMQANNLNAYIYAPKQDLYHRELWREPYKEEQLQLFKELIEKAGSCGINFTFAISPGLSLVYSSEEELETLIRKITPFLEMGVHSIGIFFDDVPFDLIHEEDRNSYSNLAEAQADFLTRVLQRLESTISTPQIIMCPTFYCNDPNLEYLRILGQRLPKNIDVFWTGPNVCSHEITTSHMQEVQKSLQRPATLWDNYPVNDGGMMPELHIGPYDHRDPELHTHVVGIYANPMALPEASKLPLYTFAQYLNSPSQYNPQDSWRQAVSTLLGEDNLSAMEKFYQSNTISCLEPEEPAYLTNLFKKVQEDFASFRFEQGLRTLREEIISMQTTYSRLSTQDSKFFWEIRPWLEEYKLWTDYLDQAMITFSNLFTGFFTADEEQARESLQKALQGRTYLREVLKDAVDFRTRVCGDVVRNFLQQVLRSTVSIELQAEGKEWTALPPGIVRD

[3] = substrate: CC(=O)N[C@H]1[C@H](Oc2ccc3c(C)cc(=O)oc3c2)O[C@H](CO)[C@@H](O)[C@@H]1O; experiment: fluorescence of released 4-methylumbelliferone, Michaelis-Menten fit; assay type: biochemical, Thermobaculum terrenum; conditions: TBS, 0.1 mg/ml BSA, 2% DMSO; 0.2 nM enzyme
[4] = target: T3, TtOGA D120N (Thermobaculum terrenum O-GlcNAcase orthologue, product of gene Tter_0116, catalytic acid mutant) (Thermobaculum terrenum strain YNP1, UniProt D1CDN2 1-474, D120N); experiment: crystal structure; co-crystallised: 40 mg/ml TtOGA D120N with 7.2 mM hTab1-O-GlcNAc peptide in 50 mM HEPES pH 7.5, 250 mM NaCl, 0.5 mM TCEP; sitting drops, 38% PEG 4000, 400 mM sodium acetate, 0.1 M Tris-HCl pH 8.5, 22 °C; 2.06 Å; conditions: both partners purified
T3 construct: O-GlcNAcase (GH84) orthologue TtOGA of Thermobaculum terrenum YNP1, gene Tter_0116, full length, cloned into pGEX-6P-1; GST removed with PreScission protease; also called D120N mutant of TtOGA; Ttoga product; source: E. coli BL21, purified (GSH-Sepharose, PreScission cleavage, Superdex 75); not shown: GST, N-terminal, cleaved
T3 sequence (looked up): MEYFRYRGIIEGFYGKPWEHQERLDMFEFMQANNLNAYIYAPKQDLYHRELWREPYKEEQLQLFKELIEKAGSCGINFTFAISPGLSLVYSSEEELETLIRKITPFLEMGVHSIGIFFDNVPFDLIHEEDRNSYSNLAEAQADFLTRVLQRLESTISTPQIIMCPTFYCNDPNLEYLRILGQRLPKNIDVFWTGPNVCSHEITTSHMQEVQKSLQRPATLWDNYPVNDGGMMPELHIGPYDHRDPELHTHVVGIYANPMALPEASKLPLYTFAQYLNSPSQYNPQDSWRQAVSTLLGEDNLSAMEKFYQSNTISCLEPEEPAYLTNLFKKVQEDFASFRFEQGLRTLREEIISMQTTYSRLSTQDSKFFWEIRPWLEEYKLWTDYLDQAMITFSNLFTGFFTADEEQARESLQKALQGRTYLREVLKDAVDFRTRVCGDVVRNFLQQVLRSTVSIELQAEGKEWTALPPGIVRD

Molecule: O=c1ccn([C@@H]2O[C@H](COP(=O)(O)OP(=O)(O)O)[C@@H](O)[C@H]2O)c(=O)[nH]1 [UDP]
- X-ray crystal structure of complex, 2.80 A [1]: TtOGT was co-crystallized with the product of O-GlcNAc transfer, UDP

B1: TtOGA (Thermobaculum terrenum ATCC BAA-798) (protein)
chain: T3 sequence (looked up) with N120D
notes: full-length, N-terminal GST fusion from E. coli BL21, GST cut off with PreScission protease (pGEX-6P-1)
- Km [3]: 90 µM
- kcat [3]: 180 s⁻¹

Now from value to molecule:

- Ki [2]: 18 nM
Molecule: C=CC=CC(=O)N[C@H]1c2nc(CCc3ccccc3)cn2[C@H](CO)[C@@H](O)[C@@H]1O [GlcNAcstatin G]

- binding result [4]: binds
B2: hTab1-O-GlcNAc peptide (392-VPYgSSAQ-398, gS is GlcNAcylated serine) (peptide)
peptide: VPYS(βGlcNAc)SAQ
notes: probably synthetic; also called hTab1 glycopeptide; glycopeptide derived from the validated hTab1 glycosylation site
